# Values quoted from earlier work in publication PMC4798892.
# Key:
# [1] = molecular target: Histone H3 (H3K9me3S10ph) (Homo sapiens) (UniProt P68431)
# [2] = molecular target: Histone H3 (H3K4me0) (Homo sapiens) (UniProt P68431)
# [3] = molecular target: Histone H3 (H3K9me3) (Homo sapiens) (UniProt P68431)
substance,measurement,setting,value
ATRX ADD (from UniProt P46100),Kd,[1],0.19 µM
same,Kd,[2],3 µM
same,Kd,[3],0.11 µM
